Our source for the protein stability index values is the supplement of paper PMC10567573.

The series can be described thus: protein stability index of a GFP-peptide fusion (GPS, HEK-293T) (PSI 1-6); higher = more stable.
Setting [1] is: treatment: DMSO, c terminus: a fixed tail appended.
[2] abbreviates: treatment: MLN4924 1 uM, 8 h, c terminus: a fixed tail appended.

± gives the standard deviation.
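Also: 24-mer peptide tiles fused after GFP, lentivirally expressed, FACS-sorted into six equal bins by GFP/DsRed ratio, decoded by Illumina sequencing, PSI is the read-weighted mean bin number.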

With GCILQWKKIYCRICMAQIAYSGNT [ZBED1], the protein stability index reads like this: under setting [1], 2.23 ± 0.81; under setting [2], 2.28 ± 0.76.

Turning to GEAGWGAGEGRLGHKRKQPLPKRV [FOXJ1], the protein stability index is, setting by setting: under setting [1], 4.5 ± 0.16; under setting [2], 4.59 ± 0.26.

Turning to GEEEAESSISSTSNEQLKVTQEPR [ZMYND11], the protein stability index came out at 5.59 ± 0.11 under setting [1] and 5.46 ± 0.28 under setting [2].

As to GEGRKSRKFSRLSCLRRRRHPPKV [SMG5], the protein stability index runs as follows: under setting [1], 3.69 ± 0.37; under setting [2], 3.82 ± 0.28.

Turning to GFFDFETFDVDEYEHYERVENGDF [CDC14A], the protein stability index worked out at 4.14 ± 0.51 under setting [1] and 4.49 ± 0.52 under setting [2].

In turn, GFTKEQQRLGIPKDPRQWTETHVR [ETS1] gave a protein stability index under setting [1] of 3.25 ± 0.58 and a protein stability index under setting [2] of 3.27 ± 0.25.

As to GFTTATEFHQRRSEIIQITTGSKE [RAD51], the protein stability index was 4.22 ± 0.44 under setting [1] and 4.35 ± 0.47 under setting [2].

For the sequence GGAEMRTQHWPIRLDGQQEPQPFV [MYORG], the protein stability index amounted to 3.86 ± 0.27 under setting [1] and 3.85 ± 0.13 under setting [2].

Consider GGDAGHAPFPPPPAADGARAPRSP [C6orf223], for which the protein stability index by setting is: under setting [1], 5.39 ± 0.28; under setting [2], 5.5 ± 0.27.

On to GGEEEDEDENIEVVYSKAASVPKV [EIF5], for which the protein stability index was 5.18 ± 0.14 under setting [1] and 4.93 ± 0.47 under setting [2].

Take GGGEGHQPAGNRRGQARRLAPNFR [BEX3]: the protein stability index is 4.93 ± 0.17 under setting [1] and 4.92 ± 0.26 under setting [2].

On to GGGNARATGMFLQYTVPGTEGVTQ [ZFYVE21], for which the protein stability index came out at 3.51 ± 0.35 under setting [1] and 3.57 ± 0.18 under setting [2].

Consider GGMALGVAGLAGLIGLAVSKSKS [FIS1], for which the protein stability index reads like this: (treatment: DMSO, c terminus: native) 2.35 ± 0.34; (treatment: MLN4924 1 uM, 8 h, c terminus: native) 1.78 ± 0.27.

With GGYGSSFGGVDGLLAGGEKATMQN [KRT17], the protein stability index came to 4.06 ± 0.12 under setting [1] and 4.395 ± 0.027 under setting [2].

For GHHQGMPGYLPGAMPPYGQGPPMV [ZNF207], the protein stability index reads like this: under setting [1], 2.86 ± 0.43; under setting [2], 2.84 ± 0.2.

Take GHLSKDVDENDSHEGEDQFLSLEA [DLC1]: the protein stability index runs as follows: under setting [1], 5.63 ± 0.17; under setting [2], 5.54 ± 0.077.

Turning to GHRSIYLALKLPDGSYALNGEYTL [ADAMTS4], the protein stability index runs as follows: under setting [1], 2.96 ± 0.94; under setting [2], 2.63 ± 0.67.

GKAATMEIPIHGNGEARQLPEDDG [ARFIP2] yielded a protein stability index under setting [1] of 5.58 ± 0.15 and a protein stability index under setting [2] of 5.34 ± 0.21.

In the case of GKDSRWLPSLVLARLVFVPLLLLC [SLC29A1], the protein stability index reads like this: under setting [1], 2.68 ± 0.78; under setting [2], 2.48 ± 0.45.

GKEFGYFPRDAVQIEEVFISEEIQ [MIA2] gave a protein stability index under setting [1] of 3.88 ± 0.42 and a protein stability index under setting [2] of 3.77 ± 0.45.

As to GKRYCRGKVLGKGGFAKCYEMTDL [PLK2], the protein stability index came to 2.79 ± 0.35 under setting [1] and 2.92 ± 0.27 under setting [2].

On to GLGELGAALLQLVRRLQALRLERE [ESRRA], for which the protein stability index stood at 2.66 ± 0.21 under setting [1] and 2.54 ± 0.14 under setting [2].

With GLKLIQIQDNGTGIRKEDLDIVCE [MLH1], the protein stability index is, setting by setting: under setting [1], 3.56 ± 0.37; under setting [2], 3.87 ± 0.75.

Regarding GLLSLLLPETLNSPLLETFSDLQV [SLC22A15], the protein stability index stood at 2.47 ± 0.67 under setting [1] and 2.68 ± 0.68 under setting [2].

In the case of GLQSYQQALLRISLDKVQRSLGPR [SERTAD3], the protein stability index was determined as 2.43 ± 0.27 under setting [1] and 2.26 ± 0.36 under setting [2].

GLSLCQFQNFSLHDPLYGKLFSTY [LPCAT4]: the protein stability index is, setting by setting: under setting [1], 1.81 ± 0.56; under setting [2], 2.06 ± 0.21.

For the sequence GLSQVLLRGGGQVLLGWTLHYFPF [POMT2], the protein stability index amounted to 2.95 ± 0.26 under setting [1] and 2.97 ± 0.64 under setting [2].

Regarding GMEGLLGTLVQLLGSDDINVVTCA [CTNNB1], the protein stability index under setting [1] amounted to 2.34 ± 0.55 and the protein stability index under setting [2] turned out to be 2.46 ± 0.15.

Consider GMSYLYASWMYQLQHGDQLSICFT [TEX19], for which the protein stability index was determined as 3 ± 0.39 under setting [1] and 2.92 ± 0.42 under setting [2].

Regarding GNDSFQLQVTEDVNSSIKTFFCPN [CLCN6], the protein stability index by setting is: under setting [1], 3.54 ± 0.31; under setting [2], 3.6 ± 0.26.

GNPDPEITWFKDFLPVDTSNNNGR [PTPRD]: the protein stability index turned out to be 4.27 ± 0.31 under setting [1] and 4.76 ± 0.26 under setting [2].

The sequence GNPEPVSYYIIQHKPKNSEELYKE [PTPRD] showed a protein stability index under setting [1] of 3.77 ± 0.34 and a protein stability index under setting [2] of 3.47 ± 0.54.

In turn, GNTVPAVEPGTPPLDILAQPLEAS [DNAAF3] came in with a protein stability index under setting [1] of 5.19 ± 0.18 and a protein stability index under setting [2] of 5.03 ± 0.29.

Regarding GPADCSPPHPAPAPQHPAASALRT [DYRK1B], the protein stability index runs as follows: under setting [1], 4.81 ± 0.24; under setting [2], 4.92 ± 0.15.

With GPDGQEMDPPNPEEVKTPEEEMRS [GAGE1], the protein stability index stood at 5.7 ± 0.3 under setting [1] and 5.38 ± 0.42 under setting [2].

On to GPRPVQSVVPEMEESGAQLLLEML [CDK4], for which the protein stability index is, setting by setting: under setting [1], 3.91 ± 0.66; under setting [2], 3.71 ± 0.15.

Regarding GPTGVTMTSNPITWGQIKKTTQEA [CDK11A], the protein stability index came to 4.55 ± 0.21 under setting [1] and 4.51 ± 0.4 under setting [2].

On to GRGLLRWDSFSAWLHCVCVVGFDL [DENND6A], for which the protein stability index runs as follows: under setting [1], 2.77 ± 0.58; under setting [2], 2.83 ± 0.69.

For the sequence GRLGKQCRERWHNHLNPEVKKSCW [MYBL2], the protein stability index under setting [1] was 2.42 ± 0.17 and the protein stability index under setting [2] is 2.99 ± 0.41.

GRSGPGCAVLDDSIYLVGGYSWSM [KLHL14]: the protein stability index under setting [1] was determined as 2.7 ± 0.39 and the protein stability index under setting [2] was 2.38 ± 0.63.

As for GSARSHASSRASENQSPSSSNYFS [ZBTB22], the protein stability index runs as follows: under setting [1], 4.28 ± 0.22; under setting [2], 4.74 ± 0.2.

In turn, GSEVVPVISPMYQLHKPLAEGTPR [IKZF1] had a protein stability index under setting [1] of 3.56 ± 0.16 and a protein stability index under setting [2] of 4.21 ± 0.49.

In the case of GSIPEFFHIMKRKFTNKEWETIRS [AASDHPPT], the protein stability index by setting is: under setting [1], 2.73 ± 0.27; under setting [2], 2.46 ± 0.3.

For the sequence GSLSLSFEREPSTSDLGTTDVQKK [RIPK4], the protein stability index by setting is: under setting [1], 5.26 ± 0.45; under setting [2], 5.31 ± 0.064.

GSSDSEEERATRLAELQEQLKAVH [BRD3]: the protein stability index is, setting by setting: under setting [1], 5.13 ± 0.23; under setting [2], 5.15 ± 0.27.

Take GTKLIFRRRPRQKEAGLSQSHDDL [C2CD2L]: the protein stability index turned out to be 4.03 ± 0.46 under setting [1] and 4.04 ± 0.3 under setting [2].

As for GTSDYDDVLSCEYYSPILDQWTPI [KLHL13], the protein stability index runs as follows: under setting [1], 2.41 ± 0.33; under setting [2], 2.34 ± 0.19.

For the sequence GVDHTKMSLHGASGGHERSRDRRR [BTBD10], the protein stability index runs as follows: under setting [1], 5.26 ± 0.27; under setting [2], 5.3 ± 0.24.

As for GWCIFVYNLSPEADESVLWQLFGP [ELAVL3], the protein stability index came out at 2.8 ± 1.4 under setting [1] and 3.7 ± 1.2 under setting [2].

Turning to GWYRPPFSRVVHLYRNGKDQDGDQ [MOG], the protein stability index was 3.67 ± 0.34 under setting [1] and 3.73 ± 0.26 under setting [2].

Regarding GYCSNQLAAKALLDQKKQDPRVQD [NET1], the protein stability index runs as follows: under setting [1], 4.89 ± 0.23; under setting [2], 4.9 ± 0.21.

In the case of GYLVTKVVAVDRDSGQNAWLSYRL [PCDHGA10], the protein stability index under setting [1] turned out to be 2.6 ± 0.56 and the protein stability index under setting [2] is 2.58 ± 0.69.

As to HATALVEAFRLKQQLHARYVLNLL [PPEF2], the protein stability index came to 2.43 ± 0.38 under setting [1] and 2.6 ± 0.51 under setting [2].

With HAVVGVATALAPLQTDHYAALLGS [SPSB2], the protein stability index amounted to 2.37 ± 0.18 under setting [1] and 2.29 ± 0.39 under setting [2].

For the sequence HAYIHSVQFSHHVFLNLHTLKFYC [USP39], the protein stability index is, setting by setting: under setting [1], 3.33 ± 0.42; under setting [2], 3.04 ± 0.56.

For the sequence HECKLTQEILELIDREVDLMMRGV [IQUB], the protein stability index came to 2.88 ± 0.2 under setting [1] and 3.17 ± 0.67 under setting [2].

As for HELVWAKMKGFGFWPAKVMQKEDN [ZMYND11], the protein stability index reads like this: under setting [1], 3.06 ± 0.37; under setting [2], 3.09 ± 0.47.

HGDDLKNTKNEISELTRLIQRIRS [KRT71]: the protein stability index was 2.77 ± 0.18 under setting [1] and 3.11 ± 0.3 under setting [2].

For HGEELRVSARSREGRGGRPGSTRP [HAGHL], the protein stability index under setting [1] was found to be 4.92 ± 0.2 and the protein stability index under setting [2] is 4.93 ± 0.16.

Take HGNEVLGRELLLLLVQFVCQEYLA [CPXM2]: the protein stability index is, setting by setting: under setting [1], 3.11 ± 1.1; under setting [2], 2.98 ± 1.2.

HGRIPDPDDFVPPVPPPSYFATFY [FAM189A2] showed a protein stability index under setting [1] of 2.24 ± 0.25 and a protein stability index under setting [2] of 2.23 ± 0.34.

HIKFPIDYPYSPPTFRFLTKMWHP [UBE2R2] showed a protein stability index under setting [1] of 2.3 ± 0.32 and a protein stability index under setting [2] of 2.24 ± 0.39.

HKLVSASTDNIVSQWDVLSGDCDQ [RBBP5]: the protein stability index is, setting by setting: under setting [1], 4.73 ± 0.18; under setting [2], 4.68 ± 0.11.

HQDLKYISPETMVALLTGKFSNIV [CDC25B]: the protein stability index was found to be 2.23 ± 0.41 under setting [1] and 2.55 ± 0.54 under setting [2].

As for HQSLSLASSPKGTIENILDNDPRD [CDC25A], the protein stability index is, setting by setting: under setting [1], 5.3 ± 0.2; under setting [2], 5.22 ± 0.18.

In the case of HRFVEKPQVFVSNKINAGMYILSP [GMPPB], the protein stability index came out at 2.25 ± 0.21 under setting [1] and 2.29 ± 0.13 under setting [2].

HSQFIGYPITLYLEKEREKEISDD [HSP90AB1] yielded a protein stability index under setting [1] of 3.82 ± 0.082 and a protein stability index under setting [2] of 3.9 ± 0.26.

Regarding HTEERPYECNHCGKGFRHSSSLAQ [ZNF8], the protein stability index is, setting by setting: under setting [1], 3.58 ± 0.3; under setting [2], 3.79 ± 0.27.

In the case of HVAVEHQLPPASRCVLVFEQVRFL [SOAT2], the protein stability index runs as follows: under setting [1], 2.66 ± 0.86; under setting [2], 2.36 ± 0.61.

For HVFIGDHSGQVTILKLEQENCTLV [WDFY2], the protein stability index under setting [1] was 2.09 ± 0.39 and the protein stability index under setting [2] is 2.19 ± 0.19.

Take HVKETQPPETVQNWIELLSGETWN [GOLPH3]: the protein stability index runs as follows: under setting [1], 3.67 ± 0.36; under setting [2], 3.86 ± 0.41.

Turning to HVSYRELGACVRTAVAQGGWRSLW [SLC25A39], the protein stability index amounted to 2.01 ± 0.19 under setting [1] and 2.13 ± 0.2 under setting [2].
